Assay results reported in PMC5071332.

Experiments:
Assay in all cases: immunostaining of cells or tissue; cell-surface binding assay: HEK293T cells expressing WT or mutant HA-tagged Slitrks incubated with 10 μg/ml control IgC or Ig-PTPδ; immunofluorescence imaging of Ig-fusion proteins and HA; percentage of cells exhibiting binding
[1] = target: HA-tagged Slitrk2[L626F] (human) (UniProt Q9H156)
[2] = target: HA-tagged Slitrk1[S593G] (human) (UniProt Q96PX8)
[3] = target: HA-tagged Slitrk2[S549F] (human) (UniProt Q9H156)
[4] = target: HA-tagged Slitrk4[I578V] (human) (UniProt Q8IW52)
[5] = target: HA-tagged Slitrk1[N400I] (human) (UniProt Q96PX8)
[6] = target: HA-tagged Slitrk2[S601P] (human) (UniProt Q9H156)
[7] = target: HA-tagged Slitrk2[R32L] (human) (UniProt Q9H156)
[8] = target: HA-tagged full-length Slitrk4 wild type (human) (UniProt Q8IW52)
[9] = target: HA-tagged full-length Slitrk1 wild type (human) (UniProt Q96PX8)
[10] = target: HA-tagged full-length Slitrk2 wild type (human) (UniProt Q9H156)
[11] = target: HA-tagged Slitrk1[T418S] (human) (UniProt Q96PX8)
[12] = target: HA-tagged Slitrk4[V206I] (human) (UniProt Q8IW52)
[13] = target: HA-tagged Slitrk2[V89M] (human) (UniProt Q9H156)
[14] = target: HA-tagged Slitrk1[R584K] (human) (UniProt Q96PX8)

recombinant Ig-fusion protein of PTPδ (IgC-PTPδ) (from UniProt P23468 21-1912) (Fc fusion)
percentage of cells exhibiting the binding of Ig-PTPδ [1]: 76%
percentage of cells exhibiting the binding of Ig-PTPδ [2]: 68.7%
percentage of cells exhibiting the binding of Ig-PTPδ [3]: 68.8%
percentage of cells exhibiting the binding of Ig-PTPδ [4]: 22.2%
percentage of cells exhibiting the binding of Ig-PTPδ [5]: 32%
percentage of cells exhibiting the binding of Ig-PTPδ [6]: 80%
percentage of cells exhibiting the binding of Ig-PTPδ [7]: 82%
percentage of cells exhibiting the binding of Ig-PTPδ [8]: 81%
percentage of cells exhibiting the binding of Ig-PTPδ [9]: 66.7%
percentage of cells exhibiting the binding of Ig-PTPδ [10]: 71%
percentage of cells exhibiting the binding of Ig-PTPδ [11]: 41%
percentage of cells exhibiting the binding of Ig-PTPδ [12]: 24%
percentage of cells exhibiting the binding of Ig-PTPδ [13]: 81%
percentage of cells exhibiting the binding of Ig-PTPδ [14]: 62%
